# According to paper PMC6044554:
# Molecular target: InlPΔLRR5-GST fusion protein (Listeria monocytogenes)
# Assay: pull-down; GST or GST fusion bait on Glutathione Sepharose 4B incubated overnight with MDCK cell lysate; beads boiled in SDS sample buffer; Western blot with anti-afadin antibody
substance,measurement,value
afadin (MDCK cells) (natural protein),fold decrease of afadin binding against InlP-GST,> 10 fold
